Assay results: patent US20040241222A1, “Lipid-polymer-conjugates compositions” (priority 2001, published 2004)

Legend:
[1] = Kinetics of 3H-labelled liposomes containing lipid-polymer-conjugates after a single intravenous injection to the rat (blood circulation time); format: in vivo; conditions: intravenous administration to rats, compared with corresponding PEG-grafted liposomes
Experimental: 100 μl was transferred to a scintillation vial (20 ml).
100 μl of Solvable was added. This was incubated for at least 1 hour.
100 μl of 1 mM EDTA and 200 μl H2O2 30% were added. This mixture was incubated for 24 hours at room temperature and overnight at 50° C. thereafter.
Ultima Gold (10 ml) was added as the scintillation fluid.
Radioactivity was measured by LSC.
The increase of blood circulation time was assessed, wherein: […]

[2] = Storage stability of liposomal preparations (percentage encapsulated prednisolone phosphate versus time); format: physicochemical; conditions: prednisolone phosphate-containing liposome suspensions, nitrogen atmosphere, 4° C. (FIG. 3)
Text: FIG. 3 is a graphical representation of the percentage encapsulated prednisolone phosphate in PEG-DSPE and PHEA-DODASuc, respectively, containing liposomal preparations versus time (example 26).

[3] = Particle size and polydispersity of liposomes by dynamic light scattering; format: physicochemical; conditions: prednisolone phosphate-containing DPPC/cholesterol liposomes, light scattering (Malvern Zeta-sizer)
Experimental: The lipid loss during preparation of the liposomes was 25%, determined by comparing the final radioactivity of the preparation with the activity before the extrusion procedure. The suspension of liposomes was stored in a nitrogen atmosphere at 4° C.
Liposomes were prepared using the film method, as described in example 23. Instead of egg phosphatidylcholine dipalmitoyl phosphatidylcholine was used. 5 mM HEPES buffer was added to the dry lipid film and shaken during 5 minutes in the presence of glass beads in order to enable complete hydration of the lipid film. The liposomes were sized by extrusion 12 times through 2 stacked PC membranes having pore sizes of […]. The resulting liposome dispersions were dialysed (MWCO 10,000) and average particle sizes were determined using dynamic light scattering technique. See table 1 for the properties of the liposomal preparations.

[4] = Encapsulation efficiency of prednisolone phosphate in liposomes (HPLC); format: physicochemical; conditions: prednisolone phosphate-containing DPPC/cholesterol liposomes

Row | Substance | Blood circulation time of the liposomes [1] | Storage stability compared with PEG-DSPE reference liposomes [2] | Mean particle size [3] [nm] | Encapsulation efficiency of the prednisolone phosphate [4] [%]
1 | Poly(2-hydroxyethyl)-L-asparagine DODASuc [Ex. 14] | Results similar to those obtained with the corresponding PEG-grafted liposomes | performed slightly better | – | –
2 | PEG-distearoylphosphatidylethanol-amine [PEG-DSPE] | – | – | ~90 | 2.6
3 | Poly(D,L-methionine Sulfoxide) DODASuc [Ex. 18] | Results similar to those obtained with the corresponding PEG-grafted liposomes | – | – | –
4 | PHEG-Diaminobutane DODASuc [Ex. 8.1] | Results similar to those obtained with the corresponding PEG-grafted liposomes | – | – | –
